Test results taken from paper PMC5727476.

How the values were obtained:
[1] = target: recombinant mouse cathepsin L (MmCL) (mouse) (UniProt P06797)
[2] = target: Eudiplozoon nipponicum cathepsin B (EnCB) (Eudiplozoon nipponicum)
[3] = target: Eudiplozoon nipponicum cathepsin L3 (EnCL3) (Eudiplozoon nipponicum)
[4] = target: recombinant Ixodes ricinus asparaginyl endopeptidase (IrAe) (Ixodes ricinus)

UniProt P06797, sequence (P06797 18-334): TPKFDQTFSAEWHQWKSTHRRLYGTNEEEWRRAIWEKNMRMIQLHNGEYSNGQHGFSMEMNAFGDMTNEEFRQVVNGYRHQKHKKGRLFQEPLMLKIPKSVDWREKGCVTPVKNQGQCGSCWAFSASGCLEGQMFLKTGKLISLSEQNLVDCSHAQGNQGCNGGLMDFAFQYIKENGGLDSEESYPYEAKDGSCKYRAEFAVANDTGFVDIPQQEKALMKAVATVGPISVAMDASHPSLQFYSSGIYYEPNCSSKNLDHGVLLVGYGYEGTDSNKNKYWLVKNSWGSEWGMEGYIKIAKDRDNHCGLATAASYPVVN

## recombinant Eudiplozoon nipponicum stefin (rEnStef) (natural protein)
[1]
  IC50 of inhibition of peptidase activity (continuous fluorometric assay, Z-Phe-Arg-AMC, 25 mM MES pH 6, 5 mM DTT; peptidase 5 nM): 0.133 µM
[2]
  IC50 of inhibition of peptidase activity (continuous fluorometric assay, Z-Phe-Arg-AMC, 25 mM MES pH 6, 5 mM DTT; peptidase 10 nM): 0.0137 µM
[3]
  IC50 of inhibition of peptidase activity (continuous fluorometric assay, Z-Phe-Arg-AMC, 25 mM MES pH 6, 5 mM DTT; peptidase 10 nM): 0.0467 µM
[4]
  IC50 of inhibition of peptidase activity (continuous fluorometric assay, Z-Ala-Ala-Asn-AMC, 25 mM MES pH 6, 5 mM DTT; peptidase 10 nM): 0.371 µM
